The assay has as its target T1, NSL1, full length (subunit of the full-length MIS12C in the KMN assembly) (human, UniProt Q96IY1 1-281).
T1 sequence (looked up): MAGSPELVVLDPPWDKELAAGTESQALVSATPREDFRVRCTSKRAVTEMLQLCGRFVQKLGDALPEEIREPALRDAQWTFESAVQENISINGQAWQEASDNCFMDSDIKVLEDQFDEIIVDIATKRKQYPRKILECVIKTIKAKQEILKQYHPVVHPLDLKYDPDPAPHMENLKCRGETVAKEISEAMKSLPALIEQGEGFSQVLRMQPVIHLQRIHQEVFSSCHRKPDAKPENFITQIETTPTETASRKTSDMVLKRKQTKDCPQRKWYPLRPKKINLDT
Nature of the assay: cross-linking; 10-subunit KMN assembly with a CENP-C fragment, 45 μg at 1 mg/ml, 650 μM BS3 (d0/d12), 30 min at 37°C; trypsin or AspN digest, tandem mass spectrometry (xQuest). Conditions: both partners purified.

Experimental findings from paper PMC5101189, “Structure of the MIS12 Complex and Molecular Basis of Its Interaction with CENP-C at Human Kinetochores” (Cell, 2016) are described below.

B1: ZWINT (natural protein, human, UniProt O95229 1-277, looked up)
chain: MEAAETEAEAAALEVLAEVAGILEPVGLQEEAELPAKILVEFVVDSQKKDKLLCSQLQVADFLQNILAQEDTAKGLDPLASEDTSRQKAIAAKEQWKELKATYREHVEAIKIGLTKALTQMEEAQRKRTQLREAFEQLQAKKQMAMEKRRAVQNQWQLQQEKHLQHLAEVSAEVRERKTGTQQELDRVFQKLGNLKQQAEQERDKLQRYQTFLQLLYTLQGKLLFPEAEAEAENLPDDKPQQPTRPQEQSTGDTMGRDPGVSFKAVGLQPAGDVNLP
notes: ZWINT, human, subunit of KNL1C in the cross-linked 10-subunit KMN assembly; also called Zwint1
On to B1, for which the binding result was “binds”.
